# Experiment: soluble on expression in E. coli; label from the status in PepcDB or PDB records
row,Sequence,soluble on expression in E. coli
1,MSSRVLTPDVVGIDALVHDHQTVLAKAEGGVVAVFANNAPAFYAVTPARLAELLALEEKLARPGSDVALDDQLYQEPQAAPVAVPMGKFAMYPDWQPDADFIRLAALWGVALREPVTTEELASFIAYWQAEGKVFHHVQWQQKLARSLQIGRASNGGLPKRDVNTVSEPDSQIPPGFRG,soluble
2,MSSTKSIPADVIAKLQKFDELITKLEDAVEEVDVGVEKHFERSAHEMALVDTMSMFLMDSLMWAVQATKGGGADKNDDLLIDLARTKRMTADMKEINLRQDAPRINKQAAANFVRNALWEQPEQGESSKKAAK,not soluble
3,MSSVAVLTQESFAEHRSGLVPQQIKVATLNSEEESDPPTYKDAFPPLPEKAACLESAQEPAGAWGNKIRPIKASVITQVFHVPLEERKYKDMNQFGEGEQAKICLEIMQRTGAHLELSLAKDQGLSIMVSGKLDAVMKARKDIVARLQTQASATVAIPKEHHRFVIGKNGEKLQDLELKTATKIQIPRPDDPSNQIKITGTKEGIEKARHEVLLISAEQDKRAVERLEVEKAFHPFIAGPYNRLVGEIMQETGTRINIPPPSVNRTEIVFTGEKEQLAQAVARIKKIYEEKKKKTTTIAVEVKKSQHKYVIGPKGNSLQEILERTGVSVEIPPSDSISETVILRGEPEKLGQALTEVYAKANSFTVSSVAAPSWLHRFIIGKKGQNLAKITQQMPKVHIEFTEGEDKITLEGPTEDVSVAQEQIEGMVKDLINRMDYVEINIDHKFHRHLIGKSGANINRIKDQYKVSVRIPPDSEKSNLIRIEGDPQGVQQAKRELLELASRMENERTKDLIIEQRFHRTIIGQKGERIREIRDKFPEVIINFPDPAQKSDIVQLRGPKNEVEKCTKYMQKMVADLVENSYSISVPIFKQFHKNIIGKGGANIKKIREESNTKIDLPAENSNSETIIITGKRANCEAARSRILSIQKDLANIAEVEVSIPAKLHNSLIGTKGRLIRSIMEECGGVHIHFPVEGSGSDTVVIRGPSSDVEKAKKQLLHLAEEKQTKSFTVDIRAKPEYHKFLIGKGGGKIRKVRDSTGARVIFPAAEDKDQDLITIIGKEDAVREAQKELEALIQNLDNVVEDSMLVDPKHHRHFVIRRGQVLREIAEEYGGVMVSFPRSGTQSDKVTLKGAKDCVEAAKKRIQEIIEDLEAQVTLECAIPQKFHRSVMGPKGSRIQQITRDFSVQIKFPDREENAVHSTEPVVQENGDEAGEGREAKDCDPGSPRRCDIIIISGRKEKCEAAKEALEALVPVTIEVEVPFDLHRYVIGQKGSGIRKMMDEFEVNIHVPAPELQSDIIAITGLAANLDRAKAGLLERVKELQAEQEDRALRSFKLSVTVDPKYHPKIIGRKGAVITQIRLEHDVNIQFPDKDDGNQPQDQITITGYEKNTEAARDAILRIVGELEQMVSEDVPLDHRVHARIIGARGKAIRKIMDEFKVDIRFPQSGAPDPNCVTVTGLPENVEEAIDHILNLEEEYLADVVDSEALQVYMKPPAHEEAKAPSRGFVVRDAPWTASSSEKAPDMSSSEEFPSFGAQVAPKTLPWGPKR,soluble
4,MSSVLDVTKPDFDVEAFVVKLLREKSLDGLVKEEEEMVSAVRRLDSDVHQIVYENYNKFLTATNTVRKIQDEFTQLDSEMKSLSRSMSTISTLIGNLDGVLGEKRDDILQLGSSYKVVNSLKHIFDLPHVLRSEFDERNYGEVLRMFKLAEESLSQYKDVPTVQLVLQKSKKIYDMTENQLMDQLRNPASGAELVSEAVDLLLTIGRDEDEVQKVLLTCSEQSLRVDLKELSANHSDVLDLVDKASESFIPNLTLIATTHDRLFEDKREDLITVLKTEMNSLHALVSKVFLSSSDAKDCSIVVRALDRYFRKISTCRYVIPGLDFLPLTIELINAVSKHEIDLSLTRIKEELKNGLNEVRKALINEEKDLSALASKIEQVFVHQVKTALANLLLFTASDVTFANLPPDEFRQSFSFNAHERLLVQAFHRFSELADEYESGAGEIRFVDPRVHLVFAVALQHLSNKSAVYLLNLCREQFSLSPDDGLTDITVVMSEVKTRAQKLVRCYAEKTGLSMGETLIKGCAMLVQPAATPSAVRASVRRLVEEMNTCDSELTLLLGGDSKPKDSRVSRRPITTALDAARDSLWCERIDFHLQIHFNRASIITVIVKVVLKIFIESIRLQTYSKFGVEQVQVDCYYLQRCLAALVSDEVVVNSMVDQALSSALKRCQDPVLVHPSRLAQLCEQPPANRPSSQASSLGY,not soluble
5,MSSVTAPRLDRATMGRKGGQKAAERWKTDPESDYATAQRETLAAANKRGARQGTGTRGRVLAVYSQTLVDTGEVPTARQIAGEIGITKRMVNIHLKELRDAGLVEQGLRDIWACGRNLGGFPV,not soluble

# Source: the DeepSol protein solubility set
